From patent publication US20230287372

Columns and labels:
Experiment in all cases: cell_activity
[1] = tested on: SeqID63 (WO2019/030695); settings: PAM TTTA
[2] = tested on: SuCms1; settings: PAM TTTA
[3] = tested on: T1, BEC10 (Artificial (engineered chimeric Cms1-like CRISPR nuclease)); settings: no-spacer negative control; 30 C
T1 sequence: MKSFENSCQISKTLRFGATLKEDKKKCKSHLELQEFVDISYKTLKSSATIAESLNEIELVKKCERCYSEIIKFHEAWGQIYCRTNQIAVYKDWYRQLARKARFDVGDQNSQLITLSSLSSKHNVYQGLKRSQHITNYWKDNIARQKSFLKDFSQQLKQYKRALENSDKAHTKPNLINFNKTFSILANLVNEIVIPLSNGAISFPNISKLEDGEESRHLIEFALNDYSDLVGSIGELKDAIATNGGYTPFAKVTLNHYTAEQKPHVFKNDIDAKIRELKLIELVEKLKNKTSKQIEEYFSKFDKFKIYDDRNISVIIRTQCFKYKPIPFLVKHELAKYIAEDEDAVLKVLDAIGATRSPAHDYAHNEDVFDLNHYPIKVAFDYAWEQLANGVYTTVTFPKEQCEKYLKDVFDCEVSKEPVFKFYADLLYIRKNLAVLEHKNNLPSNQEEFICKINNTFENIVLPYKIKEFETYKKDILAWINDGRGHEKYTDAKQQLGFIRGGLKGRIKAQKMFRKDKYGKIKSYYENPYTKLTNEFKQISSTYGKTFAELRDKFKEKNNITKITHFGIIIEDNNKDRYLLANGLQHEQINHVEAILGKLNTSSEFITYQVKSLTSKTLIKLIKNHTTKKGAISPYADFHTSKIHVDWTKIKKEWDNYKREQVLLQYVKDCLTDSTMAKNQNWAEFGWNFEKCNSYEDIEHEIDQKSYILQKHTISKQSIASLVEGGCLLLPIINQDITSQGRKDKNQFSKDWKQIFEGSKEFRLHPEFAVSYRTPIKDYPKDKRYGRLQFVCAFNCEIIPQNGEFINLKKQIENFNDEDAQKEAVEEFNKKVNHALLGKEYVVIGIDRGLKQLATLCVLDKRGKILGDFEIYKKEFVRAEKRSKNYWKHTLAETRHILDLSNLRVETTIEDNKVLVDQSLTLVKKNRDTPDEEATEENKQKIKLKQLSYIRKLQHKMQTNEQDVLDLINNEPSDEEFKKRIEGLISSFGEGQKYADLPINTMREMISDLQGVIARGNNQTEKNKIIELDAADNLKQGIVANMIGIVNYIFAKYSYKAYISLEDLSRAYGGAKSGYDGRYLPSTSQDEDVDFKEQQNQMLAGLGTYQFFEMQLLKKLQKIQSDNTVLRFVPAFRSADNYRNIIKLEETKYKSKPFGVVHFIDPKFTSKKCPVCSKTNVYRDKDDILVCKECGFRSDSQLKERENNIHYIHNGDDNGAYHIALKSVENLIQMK

[4] = tested on: T2, BEC67 (Artificial (engineered chimeric Cms1-like CRISPR nuclease)); settings: no-spacer negative control; 30 C
T2 sequence: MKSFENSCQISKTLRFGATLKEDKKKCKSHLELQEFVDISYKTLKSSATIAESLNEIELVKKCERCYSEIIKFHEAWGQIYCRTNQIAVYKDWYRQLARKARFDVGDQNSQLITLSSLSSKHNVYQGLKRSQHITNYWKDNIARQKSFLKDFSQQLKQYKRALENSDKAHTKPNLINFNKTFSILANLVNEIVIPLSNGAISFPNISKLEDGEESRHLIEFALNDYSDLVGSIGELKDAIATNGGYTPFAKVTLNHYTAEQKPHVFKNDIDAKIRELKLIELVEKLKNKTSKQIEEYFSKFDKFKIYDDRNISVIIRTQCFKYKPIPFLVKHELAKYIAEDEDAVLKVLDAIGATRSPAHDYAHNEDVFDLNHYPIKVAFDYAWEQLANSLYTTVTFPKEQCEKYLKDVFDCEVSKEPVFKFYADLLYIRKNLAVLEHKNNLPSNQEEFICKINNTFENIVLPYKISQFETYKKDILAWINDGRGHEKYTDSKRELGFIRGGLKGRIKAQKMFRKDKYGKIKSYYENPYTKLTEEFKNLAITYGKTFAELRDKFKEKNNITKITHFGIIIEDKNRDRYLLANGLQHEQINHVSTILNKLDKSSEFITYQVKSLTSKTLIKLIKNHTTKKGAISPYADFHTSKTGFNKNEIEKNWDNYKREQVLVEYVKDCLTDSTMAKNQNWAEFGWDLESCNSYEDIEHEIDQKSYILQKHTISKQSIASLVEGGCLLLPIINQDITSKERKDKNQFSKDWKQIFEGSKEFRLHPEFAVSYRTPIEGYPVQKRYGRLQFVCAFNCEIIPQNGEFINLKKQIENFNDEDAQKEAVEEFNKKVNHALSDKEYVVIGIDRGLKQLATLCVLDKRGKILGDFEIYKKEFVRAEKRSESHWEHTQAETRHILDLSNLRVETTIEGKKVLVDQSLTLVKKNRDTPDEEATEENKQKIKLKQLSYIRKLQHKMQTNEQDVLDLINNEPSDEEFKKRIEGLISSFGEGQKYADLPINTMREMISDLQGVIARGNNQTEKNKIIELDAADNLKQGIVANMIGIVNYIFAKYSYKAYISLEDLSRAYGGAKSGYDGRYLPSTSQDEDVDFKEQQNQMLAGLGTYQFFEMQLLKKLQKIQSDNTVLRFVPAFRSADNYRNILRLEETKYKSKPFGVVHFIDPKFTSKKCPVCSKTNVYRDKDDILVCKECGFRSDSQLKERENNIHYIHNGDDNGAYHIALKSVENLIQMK

[5] = tested on: T3, BEC85 (Artificial (engineered chimeric Cms1-like CRISPR nuclease)); settings: no-spacer negative control; 30 C
T3 sequence: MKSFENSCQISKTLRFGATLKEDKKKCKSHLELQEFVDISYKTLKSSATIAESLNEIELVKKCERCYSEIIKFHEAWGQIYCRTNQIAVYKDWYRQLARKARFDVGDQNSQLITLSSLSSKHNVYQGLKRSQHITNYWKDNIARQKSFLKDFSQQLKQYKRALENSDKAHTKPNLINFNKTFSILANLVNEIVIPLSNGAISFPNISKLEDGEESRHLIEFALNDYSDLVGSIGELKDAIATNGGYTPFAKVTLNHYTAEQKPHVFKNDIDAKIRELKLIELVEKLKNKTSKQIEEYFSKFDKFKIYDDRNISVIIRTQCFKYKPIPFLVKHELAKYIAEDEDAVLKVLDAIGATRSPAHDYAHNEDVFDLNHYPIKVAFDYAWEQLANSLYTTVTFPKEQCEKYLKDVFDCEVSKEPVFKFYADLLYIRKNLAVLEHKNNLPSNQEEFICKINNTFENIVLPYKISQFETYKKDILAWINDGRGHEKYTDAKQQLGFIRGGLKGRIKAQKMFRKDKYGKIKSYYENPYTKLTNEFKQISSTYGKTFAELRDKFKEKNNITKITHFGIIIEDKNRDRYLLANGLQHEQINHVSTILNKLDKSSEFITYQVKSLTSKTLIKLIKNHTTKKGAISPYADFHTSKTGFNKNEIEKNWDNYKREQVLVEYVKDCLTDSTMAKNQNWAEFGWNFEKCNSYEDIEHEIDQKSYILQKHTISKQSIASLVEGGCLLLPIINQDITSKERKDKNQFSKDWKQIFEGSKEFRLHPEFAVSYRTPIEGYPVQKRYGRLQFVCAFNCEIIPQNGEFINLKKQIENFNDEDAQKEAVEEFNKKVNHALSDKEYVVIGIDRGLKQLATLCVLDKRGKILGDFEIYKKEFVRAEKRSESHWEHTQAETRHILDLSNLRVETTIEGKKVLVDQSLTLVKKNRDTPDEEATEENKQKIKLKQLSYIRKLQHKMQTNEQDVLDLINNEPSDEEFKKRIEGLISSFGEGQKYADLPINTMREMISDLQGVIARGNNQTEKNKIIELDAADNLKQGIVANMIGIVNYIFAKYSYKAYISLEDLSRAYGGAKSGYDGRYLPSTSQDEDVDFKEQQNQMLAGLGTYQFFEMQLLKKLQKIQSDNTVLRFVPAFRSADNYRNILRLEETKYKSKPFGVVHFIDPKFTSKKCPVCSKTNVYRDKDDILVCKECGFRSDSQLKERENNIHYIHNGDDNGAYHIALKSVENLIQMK

Substance: Ade2 gRNA for Cms1 comparators ; Ade2 target
- activity (% editing efficiency) ([1]; S. cerevisiae 21 C): 0.2
- activity (% editing efficiency) ([1]; S. cerevisiae 30 C, comparable to negative control): 0.2
- activity (% editing efficiency) ([2]; S. cerevisiae 21 C, near negative control): 0.3
- activity (% editing efficiency) ([2]; S. cerevisiae 30 C, 3% fully edited): 5

Substance: gRNA cassette without spacer ; Ade2 target
- activity (% editing efficiency) [3]: 0.2
- activity (% editing efficiency) [4]: 0.2
- activity (% editing efficiency) [5]: 0.2

Substance: rpoB gRNA for Cms1 comparators ; rpoB target
- activity (% colony reduction) ([1]; E. coli depletion assay 37 C): 0
- activity (% colony reduction) ([2]; E. coli depletion assay 37 C): 72
